Test results as given in the supplement of paper PMC11865577.

Experiments:
Test in all cases: pull-down binding Z-score (relative to library population); higher = stronger binding
[1] = tested on: G-clamp-N3 (biotin conjugate); details: RNA library: Library-1 (pre-miRNA loops + repeats)
Outline: (§1)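 Streptavidin beads bearing 100 pmol of a biotin-conjugated small molecule were incubated for 60 min at 25 °C with 1 μg of heat-folded, Cy5- or Cy3-end-labelled RNA library in phosphate/NaCl/KCl buffer. Hot SDS eluted the RNA that stayed bound after three washes, and this RNA was hybridised for 20 h at 55.5 °C to a DNA barcode microarray. Binding was expressed as a Z-score against the library mean and standard deviation, after subtraction of a beads-only signal and trimmed averaging of barcoded replicate probes.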

[2] = tested on: TO-3-N3 (biotin conjugate); details: RNA library: Library-2
Outline: as §1

[3] = tested on: TO-3-N3-2 (biotin conjugate); details: RNA library: Library-2
Outline: as §1

TO-N3 (biotin conjugate) = details: RNA library: Library-2
Outline: as §1

[4] = tested on: TO-N3-2 (biotin conjugate); details: RNA library: Library-2
Outline: as §1

Sequence | pull-down binding Z-score [1] | pull-down binding Z-score [2] | pull-down binding Z-score [3] | pull-down binding Z-score (TO-N3 (biotin conjugate)) | pull-down binding Z-score [4]
CUGGGAGGUGUGAUCCUGUGCUUCCUGG [hsa-mir-3689a] | -0.339 | 0.678 | 0.507 | 0.863 | 1.15
CUGGGGACUGUGUGGACUGGUAUCACCCAG [hsa-mir-2278] | 0.134 | -0.242 | -0.298 | 0.225 | 0.585
CUGGGGAGCCGGACAGCUCCCUUCCCAG [hsa-mir-3155a] | 0.802 | 0.918 | -0.168 | 0.7 | -0.0145
CUGGGGGAAGGCUCCAGACCCCAGCCU [hsa-mir-4267] | -0.401 | 0.793 | 0.331 | 1.19 | 1.37
CUGGGGUUGGAAUGUGACCCCA [hsa-mir-4654] | -0.709 | 0.425 | -0.171 | 0.541 | 0.687
CUGGGUCCUCUGUGCAGGGUCUUACCCAG [hsa-mir-7850] | -0.833 | -0.3 | -0.415 | -0.253 | 0.337
CUGGGUGGGACACUCAG [hsa-mir-4692] | -0.443 | 1.24 | 0.311 | 0.91 | 0.0278
CUGGGUUCGGCUGCUACCCCAAA [hsa-mir-6768] | -1.38 | 0.179 | 0.195 | 0.563 | 0.742
CUGGGUUCUUAGAGGCCUAAUCCUCUACAAACUCAGUUU [hsa-mir-4305] | -1.01 | -0.124 | -0.258 | 0.144 | 0.546
CUGGUAGUAUAAAACCCAG [hsa-mir-934] | 0.805 | -0.0745 | -0.114 | -0.151 | -0.468
CUGGUGUUCUCACGCAAAGUGGCCAGGGUGUGGGAGACUAGA [hsa-mir-7161] | 2.32 | 0.688 | 0.556 | 1.14 | 1.34
CUGUAUGUCCUAACAGUGCUUGUAG [hsa-mir-4794] | -0.4 | -0.28 | -0.0698 | 0.0771 | 0.46
CUGUCCCCUGCCACUGGGUGACC [hsa-mir-7114] | -0.449 | 0.262 | 0.144 | 0.471 | 0.894
CUGUCCUGGACUGGGGUCAGACUGUGCCCCGAGGAGAAGCAG [hsa-mir-922] | 0.368 | -0.2 | -0.166 | 0.794 | 1.47
CUGUCUGUUGUAUAAAAGAAAAGAUCG [hsa-mir-517a] | -0.46 | 0.157 | 0.743 | 0.594 | 1
CUGUCUGUUGUCUAAGAAAAGAUCG [hsa-mir-517c_517b] | 0.565 | -0.481 | 0.294 | -0.0242 | 0.202
CUGUGAAUCCAAGAUCCACA [hsa-mir-4527] | -1.57 | -0.439 | -0.489 | -0.39 | -0.241
CUGUGACGUGCUCCAUCACCGGGCAG [hsa-mir-3714] | 0.138 | -0.37 | -0.391 | -0.0254 | 0.847
CUGUGAGGACAUCCAGGGUCACAG [hsa-mir-125a] | 3.76 | 0.423 | 0.169 | 0.903 | 0.969
CUGUGAUAACAACUCAG [hsa-mir-4705] | -1.06 | 0.564 | -0.23 | 0.29 | -0.508
CUGUGCAGAACAUCCGCUCACCUGUACAG [hsa-mir-214] | 0.104 | 0.0427 | -0.43 | 0.0753 | 0.171
CUGUGCAGGGCCAACUGUGCACAC [hsa-mir-3681] | 0.785 | 0.827 | 0.227 | 1.15 | 1.14
CUGUGCUGUCUCUGAGCACCG [hsa-mir-6827] | 0.0113 | 0.0475 | -0.348 | 0.322 | 0.586
CUGUGGCCGGUCCCAG [hsa-mir-4656] | -0.405 | 1.39 | -0.0683 | 1.45 | 0.902
CUGUGGUCUAACCUUUCCCAUCU [hsa-mir-6828] | -1.45 | -0.163 | 0.125 | 0.169 | 0.334

Sequence | pull-down binding Z-score [1] | pull-down binding Z-score [2] | pull-down binding Z-score [3] | pull-down binding Z-score (TO-N3 (biotin conjugate)) | pull-down binding Z-score [4]
CUGUGGUGGCUGCUCAUGCACCACGG [hsa-mir-105-1] | 1.44 | -0.868 | -0.574 | -1.05 | -0.558
CUGUGGUGGCUGCUUAUGCACCACGG [hsa-mir-105-2] | 1.15 | 0.62 | -0.102 | 0.363 | -0.626
CUGUGGUUUGCUGGCUGCCUCAG [hsa-mir-6736] | -0.566 | 0.2 | -0.353 | 0.467 | 0.776
CUGUGUGAGGACUAGAGGCGG [hsa-mir-4523] | 1.39 | 0.0476 | 0.44 | 0.511 | 1.05
CUGUUCAGGACAAUGCCGUUGUACA [hsa-mir-199a-2] | 0.637 | -0.355 | -0.27 | 0.16 | 0.838
CUGUUCAGGACUCCCAAAUUGUACAG [hsa-mir-199b] | -0.893 | 1.12 | 0.385 | 1 | 0.347
CUGUUCAGGAGGCUCUCAAUGUGUACA [hsa-mir-199a-1] | -0.113 | 0.518 | 0.404 | 0.947 | 0.656
CUGUUGAAAGAAAAG [hsa-mir-526a-2] | -0.371 | 0.496 | 0.511 | 1.01 | 0.598
CUGUUGUGCCUAAUUCAGAG [hsa-mir-296] | -0.279 | -0.165 | 0.0218 | 0.0489 | 0.492
CUGUUGUUUCAGCUCGACAACAACAG [hsa-mir-3937] | 0.361 | -0.212 | -0.335 | -0.333 | -0.505
CUGUUUCUGGUGAAAUAUUCAAACAG [hsa-mir-4433a] | -0.293 | 0.27 | -0.178 | -0.0687 | 0.256
CUGUUUGUUGUCUGAGAAAAAACA [hsa-mir-520g_520h] | 1.11 | -0.638 | -0.125 | -0.598 | -0.229
CUUAAGUGGUUCGGGUAAAUCACUUUAA [hsa-mir-3977] | -1.04 | -0.623 | -0.186 | -0.623 | -0.585
CUUAAUAGAUUAAUAUUUGUAAG [hsa-mir-506] | 0.431 | -0.743 | -0.335 | -0.877 | -1.02
CUUACUGCCCGGGCCGCCCUCAGUAA [hsa-mir-212] | -1.81 | 0.545 | 0.033 | 1.17 | 1.45
CUUACUGUACACGUGGCUGGCAAG [hsa-mir-4428] | -0.412 | -0.0149 | 0.108 | 0.588 | 1.09
CUUAGAUUUUUCCAUCUUUGUAUCUAG [hsa-mir-29b-2] | 0.453 | -0.805 | -0.236 | -0.995 | -0.98
CUUAGUAGGUGAUAGCAUGACUGAC [hsa-mir-5002] | 1.66 | 0.324 | 0.356 | 0.958 | 1.16
CUUCACUGGUGCAGUAAGAAG [hsa-mir-7853] | -0.0639 | -0.0978 | -0.195 | -0.253 | -0.23
CUUCAGAGCAGGGUUUGGUCUGUGCUUCUCUG [hsa-mir-6719] | 0.184 | -0.415 | -0.245 | -0.222 | 0.452
CUUCAGCCCCAGGAAGCCUUGGUCGGGGGCAGGAG [hsa-mir-647] | 0.744 | 0.309 | -0.171 | 0.594 | 0.849
CUUCCCAUUUAAAAGUAAUGGCACA [hsa-mir-603] | -2.03 | 0.893 | 0.425 | 0.861 | 0.104
CUUCCUGAGCACGCUCAUGAUGAGCAAACUGAGCCUCUAAG [hsa-mir-3653] | -0.859 | 0.463 | 0.277 | 0.596 | 0.429
CUUCGCGCUAGUUUGUUUGUGUUAAG [hsa-mir-6077] | -0.639 | -0.0696 | 0.0164 | -0.0943 | -0.426
CUUCGGUAUUCAUCAAAAAUACCAAAG [hsa-mir-4735] | -0.293 | -0.683 | -0.63 | -1.08 | -1.52

Sequence | pull-down binding Z-score [1] | pull-down binding Z-score [2] | pull-down binding Z-score [3] | pull-down binding Z-score (TO-N3 (biotin conjugate)) | pull-down binding Z-score [4]
CUUCUGCUUCCUCUUAGCGCAGGAG [hsa-mir-1914] | -1.66 | -0.591 | -0.325 | -0.751 | -0.409
CUUCUUACUGCACCAGUGAAG [hsa-mir-5683] | -1.53 | -0.186 | -0.268 | -0.0796 | 0.131
CUUGAUUUAAAUGUCCAUACAAUUAAG [hsa-mir-124-1] | -0.57 | -0.0597 | -0.142 | -0.179 | -0.133
CUUGAUUUAAUGUCAUACAAUUAAG [hsa-mir-124-2] | -0.895 | -0.687 | -0.157 | -0.928 | -0.734
CUUGAUUUAAUGUCUAUACAAUUAAG [hsa-mir-124-3] | -0.412 | -0.0185 | -0.0577 | -0.159 | -0.45
CUUGCAGAAUUAAUGGAAUGCUG [hsa-mir-676] | -1.73 | 0.253 | 0.0539 | 0.41 | 0.28
CUUGCGGGGCCUUCGCCGCACACAAG [hsa-mir-99b] | 1.51 | 0.198 | -0.148 | 0.328 | 0.595
CUUGCUGUGACAUGACAAAAAUAAG [hsa-mir-302d] | -0.853 | 0.449 | 0.294 | 0.357 | -0.107
CUUGCUUUGAAACUAAAGAAGUAAG [hsa-mir-302a] | 0.749 | -0.0041 | -0.131 | -0.193 | -0.319
CUUGGCACCUUUGGCCUUAG [hsa-mir-4540] | 0.795 | 0.0499 | -0.125 | 0.112 | -0.0687
CUUGGCUUCAAUUUACUCCCAGG [hsa-mir-4446] | -1.06 | 0.257 | -0.0843 | 0.101 | 0.323
CUUGGGCCCAUUCCUUUCCUUACCCUAC [hsa-mir-6798] | -1.1 | 0.268 | 0.218 | 0.541 | 0.758
CUUGUGGUAUUAGUCCGCACAAG [hsa-mir-100] | 1.17 | 0.418 | -0.161 | 0.334 | -0.096
CUUGUGGUGAAGUGGACCGCACAAG [hsa-mir-99a] | 1.24 | -0.203 | 0.00618 | -0.0222 | 1
CUUUAGCUAUUCUGAAUGCCUAAAG [hsa-mir-4662a] | -0.469 | -0.298 | -0.236 | -0.375 | -0.393
CUUUAGGCAUUCAGAAUAGCUAAAG [hsa-mir-4662b] | -0.994 | -0.451 | -0.212 | -0.472 | -0.263
CUUUCCUCAGCUGAUUUCUUUCUGGGGAGAG [hsa-mir-5186] | -0.72 | -0.144 | -0.279 | -0.52 | -1.08
CUUUCCUUUUUGUCUGUACUGGGAAG [hsa-mir-373] | 0.709 | -0.365 | -0.328 | -0.709 | -1.12
CUUUCUGUGACUUUAAAAGUAAG [hsa-mir-302b] | -0.444 | -0.538 | -0.355 | -0.844 | -0.999
CUUUCUGUUGGCUAAAAGAAAAGAAAG [hsa-mir-518e] | 1.11 | -0.396 | 0.129 | -0.366 | 0.0576
CUUUCUGUUGUCUAAAAGAAAAGAAAG [hsa-mir-520d] | 0.0447 | -0.444 | -0.331 | -0.415 | -0.127
CUUUCUGUUGUCUAAAAGAAAAGAACG [hsa-mir-521-1] | 0.795 | -0.211 | 0.0499 | -0.124 | 0.0505
CUUUCUGUUGUCUGAAAGAAAAGAAAA [hsa-mir-522] | -0.228 | -0.109 | 0.118 | 0.617 | 0.775
CUUUCUGUUGUCUGAAAGAAAAGAAAG [hsa-mir-520c_520b_519c_519b] | 0.44 | 0.176 | 0.102 | 0.458 | 0.38
CUUUCUGUUGUCUGAAAGAAAGGAAAG [hsa-mir-519a-1_519a-2] | -0.55 | -0.467 | -0.315 | -0.572 | -0.239
